From article PMC11898274, “Interleukin-34 orchestrates bone formation through its binding to bone morphogenic proteins” (Theranostics, 2025) come the findings set out here.

For test [1], the target named is T1, Recombinant human interleukin-34 (IL34) (human, UniProt Q6ZMJ4 21-242).
T1 construct: Interleukin-34, human, recombinant; source: bought: R&D Systems
T1 sequence (looked up): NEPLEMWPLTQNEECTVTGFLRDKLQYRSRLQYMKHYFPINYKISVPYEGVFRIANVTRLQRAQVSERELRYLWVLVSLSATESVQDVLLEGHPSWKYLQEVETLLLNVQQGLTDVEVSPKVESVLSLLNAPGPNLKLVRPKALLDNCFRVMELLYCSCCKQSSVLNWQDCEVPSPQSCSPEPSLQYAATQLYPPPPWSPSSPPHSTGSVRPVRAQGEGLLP
The test is described as follows: SPR; BMP2, BMP4 or BMP7 immobilised (1500-2300 RU) on CM5-S chip by amine coupling at pH 4.5; IL34 injected in one cycle titration (12.5-200 nM, 60 s, 100 µL/min), 600 s dissociation; T200, 25 °C, PBS pH 7.4 with 0.05% P20; bivalent fitting model. Conditions: both partners purified. For orientation: In SPR one partner is held on a chip, and binding of the other changes the refractive index at the surface.

For test [2], the target named is T1, Recombinant human interleukin-34 (IL34). The test is described as follows: SPR; receptors captured on immobilized anti-human Fc; IL34 injected (18.75, 37.5, 75, 150, 300 nM); T200, 25 °C, PBS pH 7.4 with 0.05% P20; steady-state fitting model. Conditions: both partners purified.
Test [3] concerns the target T2, Recombinant human bone morphogenetic protein 7 (BMP7) (human, UniProt P18075 293-431).
T2 chain: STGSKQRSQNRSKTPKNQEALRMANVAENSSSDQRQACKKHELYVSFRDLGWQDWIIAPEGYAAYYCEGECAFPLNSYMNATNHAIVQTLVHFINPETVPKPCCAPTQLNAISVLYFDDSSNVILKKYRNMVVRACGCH
The test can be described thus: SPR.

Test [4] has as its target T3, Recombinant human bone morphogenetic protein 2 (BMP2) (human, UniProt P12643 283-396).
T3 chain: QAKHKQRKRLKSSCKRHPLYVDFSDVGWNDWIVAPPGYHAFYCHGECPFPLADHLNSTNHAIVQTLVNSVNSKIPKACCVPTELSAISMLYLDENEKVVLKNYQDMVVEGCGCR
The test is described as follows: SPR.

The target of test [5] is T4, Recombinant human bone morphogenetic protein 4 (BMP4) (human, UniProt P12644 293-408).
T4 chain: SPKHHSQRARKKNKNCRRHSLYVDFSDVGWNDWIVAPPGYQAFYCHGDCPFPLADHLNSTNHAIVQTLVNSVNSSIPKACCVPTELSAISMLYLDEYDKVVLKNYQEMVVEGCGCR
The test is described as follows: SPR.

B1: Recombinant human bone morphogenetic protein 4 (BMP4) (ligand, UniProt P12644 293-408, looked up)
chain: SPKHHSQRARKKNKNCRRHSLYVDFSDVGWNDWIVAPPGYQAFYCHGDCPFPLADHLNSTNHAIVQTLVNSVNSSIPKACCVPTELSAISMLYLDEYDKVVLKNYQEMVVEGCGCR
notes: Bone morphogenetic protein 4, human, recombinant; source: bought: R&D Systems
For the molecule B1, in test [1], the Kd stood at 426 nM.

B2: Human Activin RIIB receptor (ActRIIB) (Fc fusion, UniProt Q13705 19-137, looked up)
chain: SGRGEAETRECIYYNANWELERTNQSGLERCEGEQDKRLHCYASWRNSSGTIELVKKGCWLDDFNCYDRQECVATEENPQVYFCCCEGNFCNERFTHLPEAGGPEVTYEPPPTAPTLLT
notes: Activin receptor type-2B, human recombinant; source: bought: R&D Systems
For the molecule B2, in test [2], the binding result is recorded as “binds”.

B3: Recombinant human bone morphogenetic protein 7 (BMP7) (ligand, UniProt P18075 293-431, looked up)
chain: STGSKQRSQNRSKTPKNQEALRMANVAENSSSDQRQACKKHELYVSFRDLGWQDWIIAPEGYAAYYCEGECAFPLNSYMNATNHAIVQTLVHFINPETVPKPCCAPTQLNAISVLYFDDSSNVILKKYRNMVVRACGCH
notes: Bone morphogenetic protein 7, human, recombinant; source: bought: R&D Systems
Turning to B3, the Kd in test [1] amounted to 922 nM.

B4: Recombinant human bone morphogenetic protein 2 (BMP2) (ligand, UniProt P12643 283-396, looked up)
chain: QAKHKQRKRLKSSCKRHPLYVDFSDVGWNDWIVAPPGYHAFYCHGECPFPLADHLNSTNHAIVQTLVNSVNSKIPKACCVPTELSAISMLYLDENEKVVLKNYQDMVVEGCGCR
notes: Bone morphogenetic protein 2, human, recombinant; source: bought: R&D Systems
In the case of B4, the Kd in test [1] was found to be 363 nM.

B5: Recombinant human interleukin-34 (IL34) (ligand)
chain: NEPLEMWPLTQNEECTVTGFLRDKLQYRSRLQYMKHYFPINYKISVPYEGVFRIANVTRLQRAQVSERELRYLWVLVSLSATESVQDVLLEGHPSWKYLQEVETLLLNVQQGLTDVEVSPKVESVLSLLNAPGPNLKLVRPKALLDNCFRVMELLYCSCCKQSSVLNWQDCEVPSPQSCSPEPSLQYAATQLYPPPPWSPSSPPHSTGSVRPVRAQGEGLLP
Usually koff stands for the rate constant with which the complex falls apart. Turning to B5, the koff worked out at 0.0561 s⁻¹ in test [3], 0.0229 s⁻¹ in test [4] and 0.0467 s⁻¹ in test [5].
